± gives the uncertainty stated by the source.
B1: PDZ and LIM domain protein 2, residues 284 to 339; numbered along this chain, Q96JY6 (parent)
chain: HTCEKCSTSIANQAVRIQEGRYRHPGCYTCADCGLNLKMRGHFWVGDELYCEKHAR

Variants of: B1
Assay: abundance fitness (aPCA) (normalised: wild type 0, dead -1); higher = more abundant; growth selection in yeast, the domain comes from the species named
Conditions: Homo sapiens

Abundance fitness of substitutions, site by site:
V15: K 0.052 ± 0.13; G -0.33 ± 0.06; F -0.38 ± 0.21; A -0.625 ± 0.16; S -0.231 ± 0.069; W -0.875 ± 0.17; Q -0.115 ± 0.1; I -0.105 ± 0.16; H -0.099 ± 0.19; M -0.283 ± 0.12; P -0.654 ± 0.14; L -0.248 ± 0.072; E 0.272 ± 0.13; T -0.018 ± 0.063; Y -0.499 ± 0.22; C -0.317 ± 0.15; R -0.596 ± 0.12; D -0.115 ± 0.11
Q18: I 0.228 ± 0.18; S 0.03 ± 0.084; F -0.303 ± 0.087; R -0.062 ± 0.082; G -0.088 ± 0.066; M -0.253 ± 0.12; N -0.248 ± 0.29; L -0.077 ± 0.083; H -0.451 ± 0.2; T -0.051 ± 0.075; C -0.087 ± 0.1; D -0.032 ± 0.13; E 0.002 ± 0.12; V 0.008 ± 0.081; P -0.47 ± 0.075; A 0.043 ± 0.062; K -0.141 ± 0.11
E19: C -0.447 ± 0.1; G -0.375 ± 0.1; F -0.672 ± 0.18; Y -0.549 ± 0.089; P -0.211 ± 0.11; T -0.068 ± 0.14; R -0.12 ± 0.064; N -0.453 ± 0.18; K 0.01 ± 0.07; V -0.495 ± 0.093; H -0.292 ± 0.15; D -0.374 ± 0.14; M -0.163 ± 0.13; W -0.624 ± 0.19; Q -0.071 ± 0.13; A -0.165 ± 0.061; S -0.197 ± 0.098; L -0.237 ± 0.064
I17: D -0.232 ± 0.3; T -0.311 ± 0.079; W -0.533 ± 0.13; E -0.325 ± 0.11; Y -0.437 ± 0.18; A -0.341 ± 0.1; L -0.121 ± 0.076; H -0.781 ± 0.13; G -0.239 ± 0.083; Q -0.535 ± 0.14; M -0.372 ± 0.072; P -0.336 ± 0.062; V -0.106 ± 0.099; C -0.453 ± 0.098; K -0.427 ± 0.09; R -0.599 ± 0.074
Y28: W 0.053 ± 0.16; M -0.13 ± 0.11; I -0.452 ± 0.2; S -0.179 ± 0.068; R -0.473 ± 0.06; D -0.772 ± 0.23; L -0.262 ± 0.098; C -0.187 ± 0.12; Q -0.246 ± 0.11; K -0.434 ± 0.14; E -0.548 ± 0.16; H -0.225 ± 0.095; F -0.364 ± 0.13; N -0.294 ± 0.12; V -0.144 ± 0.095; G -0.471 ± 0.11; T 0.116 ± 0.11; A -0.076 ± 0.063; P -0.752 ± 0.21
R21: S -0.02 ± 0.066; F -0.01 ± 0.14; Y -0.008 ± 0.11; I -0.046 ± 0.14; T 0.151 ± 0.12; A 0.015 ± 0.071; N -0.259 ± 0.18; C -0.069 ± 0.12; L -0.01 ± 0.067; K 0.002 ± 0.077; E -0.286 ± 0.14; M 0.035 ± 0.12; V 0.11 ± 0.099; D -0.217 ± 0.15; G -0.251 ± 0.058; H -0.015 ± 0.055; P -0.101 ± 0.11
Q13: Y -0.775 ± 0.35; W -1.19 ± 0.19
C33: F -0.876 ± 0.14; A -0.94 ± 0.072; E -1.05 ± 0.18; D -0.695 ± 0.19
A14: K -0.417 ± 0.093; R -0.466 ± 0.071; F 0.188 ± 0.14; V -0.208 ± 0.092; N -0.023 ± 0.12; I -0.07 ± 0.099; W -0.182 ± 0.12; S -0.179 ± 0.079; D -0.33 ± 0.2; E 0.143 ± 0.084; Y -0.209 ± 0.22; H -0.247 ± 0.24; T -0.468 ± 0.11; C -0.139 ± 0.18; G -0.254 ± 0.089; Q -0.329 ± 0.12
G26: L 0.122 ± 0.064; R 0.127 ± 0.068; K 0.209 ± 0.084; H 0.525 ± 0.14; S 0.069 ± 0.071; M 0.037 ± 0.092; D 0.227 ± 0.073; I 0.08 ± 0.2; C 0.006 ± 0.11; W 0.072 ± 0.1; Q 0.232 ± 0.077; A 0.033 ± 0.091; E 0.277 ± 0.11; V 0.101 ± 0.071; P -0.016 ± 0.082; N -0.083 ± 0.12; T 0.158 ± 0.08; F 0.19 ± 0.091
R16: Y 0.029 ± 0.11; H 0.004 ± 0.17; L 0.168 ± 0.06; P 0.209 ± 0.082; M 0.2 ± 0.1; K 0.223 ± 0.14; C 0.32 ± 0.091; F 0.215 ± 0.11; T 0.137 ± 0.11; A 0.2 ± 0.083; S 0.112 ± 0.098; V 0.146 ± 0.06; E 0.037 ± 0.091; W 0.298 ± 0.12; I 0.172 ± 0.13; D -0.091 ± 0.1; G -0.015 ± 0.06; N 0.191 ± 0.14; Q 0.308 ± 0.14
R23: K -0.315 ± 0.13; W -0.431 ± 0.21; S -0.278 ± 0.072; N -0.173 ± 0.18; M -0.317 ± 0.12; I -0.69 ± 0.21; H -0.302 ± 0.074; P -0.111 ± 0.13; V -0.075 ± 0.065; Y -0.303 ± 0.066; D -0.486 ± 0.11; T -0.125 ± 0.089; E -0.318 ± 0.14; C -0.238 ± 0.11; F -0.391 ± 0.23; Q -0.509 ± 0.27; L -0.212 ± 0.062; G -0.457 ± 0.059; A -0.108 ± 0.067
D32: L -0.099 ± 0.075; A -0.361 ± 0.078; H 0.027 ± 0.11; V -0.245 ± 0.093; Y -0.106 ± 0.087; S -0.193 ± 0.072; I -0.284 ± 0.11; G -0.178 ± 0.054; F 0.006 ± 0.082; T 0.057 ± 0.061; M -0.022 ± 0.095; W -0.235 ± 0.06; C -0.188 ± 0.12; R 0.124 ± 0.077; Q -0.336 ± 0.096; P -0.824 ± 0.17; E -0.171 ± 0.083
Y22: C -0.348 ± 0.12; R -0.333 ± 0.094; F 0.108 ± 0.076; T -0.477 ± 0.11; A -0.269 ± 0.09; V -0.321 ± 0.066; S -0.292 ± 0.053; P -0.496 ± 0.14; K -0.311 ± 0.14; M -0.532 ± 0.13; L -0.349 ± 0.087; Q -0.02 ± 0.076; N -0.32 ± 0.1; H -0.398 ± 0.22; W -0.014 ± 0.11; G -0.411 ± 0.08; I -0.691 ± 0.23
C30: G -0.618 ± 0.12; W -1.05 ± 0.23; M -0.712 ± 0.13; H -0.669 ± 0.47; S -0.921 ± 0.15; V -0.789 ± 0.19; Y -0.956 ± 0.12; E -0.834 ± 0.075; K -1.13 ± 0.38; P -0.671 ± 0.17; L -1.03 ± 0.14; N -0.788 ± 0.35; I -1.06 ± 0.36; A -1.01 ± 0.082; T -0.642 ± 0.07
C27: T -0.442 ± 0.071; P -0.425 ± 0.083; Y -0.885 ± 0.22; L -0.535 ± 0.062; S -0.598 ± 0.11; G -0.514 ± 0.098; E -0.105 ± 0.12; R -0.838 ± 0.12; N -0.826 ± 0.33; K -0.39 ± 0.088; A -0.428 ± 0.087; M -0.627 ± 0.099; V -0.661 ± 0.12; I -0.904 ± 0.28; W -0.602 ± 0.12; F -1.02 ± 0.3; Q -0.268 ± 0.075
T29: I -0.004 ± 0.1; R -0.261 ± 0.057; S -0.092 ± 0.081; Y -0.17 ± 0.065; C -0.23 ± 0.064; V -0.309 ± 0.076; G -0.198 ± 0.067; L -0.117 ± 0.081; H -0.041 ± 0.09; N -0.177 ± 0.15; M -0.354 ± 0.16; E -0.455 ± 0.15; F -0.194 ± 0.18; D 0.216 ± 0.14; W -0.758 ± 0.12; P -0.767 ± 0.28; A -0.103 ± 0.11
P25: N -0.152 ± 0.14; Y -0.414 ± 0.27; G -0.053 ± 0.091; W -0.807 ± 0.17; C -0.546 ± 0.19; E 0.402 ± 0.082; S 0.118 ± 0.068; A 0.113 ± 0.093; Q 0.035 ± 0.083; K -0.003 ± 0.092; V -0.169 ± 0.072; I -0.033 ± 0.062; D 0.323 ± 0.075; M 0.075 ± 0.085; F -0.492 ± 0.1; L 0.099 ± 0.054; T -0.09 ± 0.095
G20: Y -0.174 ± 0.082; M -0.154 ± 0.068; C -0.339 ± 0.071; W -0.497 ± 0.12; E -0.209 ± 0.15; V -0.363 ± 0.069; T -0.129 ± 0.069; Q -0.56 ± 0.22; N 0.006 ± 0.081; R -0.136 ± 0.063; H -0.119 ± 0.067; L -0.452 ± 0.087; A -0.251 ± 0.11; K -0.023 ± 0.17; F 0.116 ± 0.12; I -0.257 ± 0.091; S -0.29 ± 0.087; P -0.63 ± 0.13
H24: G -0.489 ± 0.089; A -0.307 ± 0.098; L -0.898 ± 0.077; C 0.309 ± 0.063; N -0.345 ± 0.12; W -0.788 ± 0.17; I -0.973 ± 0.36; P -0.582 ± 0.086; D -0.047 ± 0.08; K -0.193 ± 0.11; S -0.264 ± 0.093; Q -0.186 ± 0.2; E -0.439 ± 0.14; R -0.435 ± 0.083; M -0.492 ± 0.09; F -0.938 ± 0.19
A31: S -0.103 ± 0.085; C -0.146 ± 0.12; H -0.257 ± 0.1; W -0.052 ± 0.12; I -0.454 ± 0.19; G 0.019 ± 0.08; F 0.039 ± 0.13; M 0.027 ± 0.087; P -0.238 ± 0.084; N 0.086 ± 0.12; V -0.029 ± 0.075; R 0.047 ± 0.067; D -0.175 ± 0.11; E 0.082 ± 0.12; Y -0.226 ± 0.17; T -0.099 ± 0.095; L 0.119 ± 0.079

— the Human Domainome abundance scans (Beltran et al. 2025)
